# Laboratory results reported in the supplement of paper PMC9112550, “Optimization of the antimicrobial peptide Bac7 by deep mutational scanning” (BMC Biology, 2022).
# Tested on: Escherichia coli TOP10
# Test: shrunken log2 fold change of peptide-encoding DNA abundance (4.5 h post-induction vs induction); higher = less antimicrobial activity (less host growth inhibition)
# Settings: time post-induction: 4.5 h; library: site-saturation at positions 5, 18, 19, 20
# 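Also: peptides expressed intracellularly from a pBAD plasmid library in pooled LB shake-flask culture, induced with 0.3% L-arabinose, DNA abundance read by NGS, three biological replicates, DESeq2 with apeglm shrinkage.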
row,Sequence,shrunken log2 fold change
1,RRIRLRPPRLPRPRPRPVHAPRP,0.178
2,RRIRMRPPRLPRPRPRPTNAPRP,0.408
3,RRIRARPPRLPRPRPRPYLVPRP,0.0333
4,RRIRQRPPRLPRPRPRPQILPRP,-0.132
5,RRIRDRPPRLPRPRPRPKLTPRP,-0.0121
6,RRIRFRPPRLPRPRPRPAFIPRP,-0.274
7,RRIRWRPPRLPRPRPRPYKQPRP,-0.0587
8,RRIRHRPPRLPRPRPRPSENPRP,-0.096
9,RRIRMRPPRLPRPRPRPPDWPRP,1.7
10,RRIRARPPRLPRPRPRPAAYPRP,0.412
11,RRIRWRPPRLPRPRPRPIVEPRP,0.127
12,RRIRCRPPRLPRPRPRPSHLPRP,-0.53
13,RRIRQRPPRLPRPRPRPIRDPRP,-0.161
14,RRIRFRPPRLPRPRPRPWAIPRP,0.268
15,RRIRNRPPRLPRPRPRPDDKPRP,-0.0189
16,RRIRYRPPRLPRPRPRPYIKPRP,-1.3
17,RRIRHRPPRLPRPRPRPNGEPRP,0.164
18,RRIRTRPPRLPRPRPRPQWKPRP,0.0581
19,RRIRDRPPRLPRPRPRPGCFPRP,0.565
20,RRIRCRPPRLPRPRPRPLPWPRP,0.195
21,RRIRRRPPRLPRPRPRPNIYPRP,-0.252
22,RRIRARPPRLPRPRPRPEPYPRP,0.34

row,Sequence,shrunken log2 fold change
1,RRIRQRPPRLPRPRPRPQSRPRP,0.00465
2,RRIRMRPPRLPRPRPRPIHDPRP,0.0367
3,RRIRWRPPRLPRPRPRPQIFPRP,-0.053
4,RRIRQRPPRLPRPRPRPYNAPRP,-0.0247
5,RRIRHRPPRLPRPRPRPVMGPRP,0.0268
6,RRIRQRPPRLPRPRPRPCFVPRP,-0.0859
7,RRIRTRPPRLPRPRPRPSHMPRP,-0.7
8,RRIRFRPPRLPRPRPRPNRLPRP,-0.121
9,RRIRNRPPRLPRPRPRPSCKPRP,0.065
10,RRIRCRPPRLPRPRPRPFPIPRP,-0.305
11,RRIRSRPPRLPRPRPRPIGTPRP,-0.25
12,RRIRERPPRLPRPRPRPGIYPRP,-0.91
13,RRIRRRPPRLPRPRPRPLLRPRP,0.44
14,RRIRSRPPRLPRPRPRPKVIPRP,-0.0209
15,RRIRVRPPRLPRPRPRPIFGPRP,-0.015
16,RRIRTRPPRLPRPRPRPYYNPRP,-0.719
17,RRIRERPPRLPRPRPRPYEAPRP,-0.59
18,RRIRCRPPRLPRPRPRPGENPRP,0.0862
19,RRIRCRPPRLPRPRPRPPKYPRP,-0.291
20,RRIRCRPPRLPRPRPRPLNHPRP,0.519
21,RRIRERPPRLPRPRPRPMCQPRP,-0.051
22,RRIRQRPPRLPRPRPRPTCTPRP,-0.0329

row,Sequence,shrunken log2 fold change
1,RRIRRRPPRLPRPRPRPSMAPRP,-0.142
2,RRIRVRPPRLPRPRPRPMDNPRP,0.0397
3,RRIRNRPPRLPRPRPRPQTIPRP,-0.194
4,RRIRNRPPRLPRPRPRPNWMPRP,-0.199
5,RRIRMRPPRLPRPRPRPFQRPRP,-0.0335
6,RRIRMRPPRLPRPRPRPGDTPRP,0.064
7,RRIRIRPPRLPRPRPRPKNEPRP,-0.14
8,RRIRDRPPRLPRPRPRPLCVPRP,0.248
9,RRIRTRPPRLPRPRPRPAAHPRP,0.199
10,RRIRVRPPRLPRPRPRPPGEPRP,0.511
11,RRIRKRPPRLPRPRPRPIWYPRP,-0.26
12,RRIRERPPRLPRPRPRPDSVPRP,-0.17
13,RRIRDRPPRLPRPRPRPQWSPRP,-0.0128
14,RRIRDRPPRLPRPRPRPSVCPRP,0.294
15,RRIRIRPPRLPRPRPRPEEEPRP,-0.031
16,RRIRMRPPRLPRPRPRPHMHPRP,0.00917
17,RRIRNRPPRLPRPRPRPQLWPRP,-0.252
18,RRIRLRPPRLPRPRPRPCLVPRP,0.127
19,RRIRMRPPRLPRPRPRPMTWPRP,0.0101
20,RRIRARPPRLPRPRPRPTQFPRP,0.071
21,RRIRKRPPRLPRPRPRPYDWPRP,-0.0468
22,RRIRHRPPRLPRPRPRPHHFPRP,-0.0916

row,Sequence,shrunken log2 fold change
1,RRIRGRPPRLPRPRPRPSAFPRP,1.1
2,RRIRMRPPRLPRPRPRPRVEPRP,0.379
3,RRIRKRPPRLPRPRPRPQNGPRP,-0.178
4,RRIRHRPPRLPRPRPRPKHKPRP,-0.297
5,RRIRLRPPRLPRPRPRPMCQPRP,0.0751
6,RRIRTRPPRLPRPRPRPSAQPRP,0.0735
7,RRIRMRPPRLPRPRPRPFLLPRP,-0.227
8,RRIRSRPPRLPRPRPRPCPWPRP,-0.115
9,RRIRDRPPRLPRPRPRPHKHPRP,-0.217
10,RRIRTRPPRLPRPRPRPASFPRP,0.133
11,RRIRGRPPRLPRPRPRPFPCPRP,-0.0294
12,RRIRCRPPRLPRPRPRPPNSPRP,0.0267
13,RRIRQRPPRLPRPRPRPQVRPRP,-0.276
14,RRIRPRPPRLPRPRPRPWQDPRP,0.115
15,RRIRHRPPRLPRPRPRPAGCPRP,0.242
16,RRIRDRPPRLPRPRPRPKVKPRP,-0.337
17,RRIRPRPPRLPRPRPRPCGMPRP,0.0189
18,RRIRYRPPRLPRPRPRPVWSPRP,-0.337
19,RRIRNRPPRLPRPRPRPLCDPRP,0.0696
20,RRIRERPPRLPRPRPRPQGTPRP,0.0468
21,RRIRWRPPRLPRPRPRPVTDPRP,0.105
22,RRIRIRPPRLPRPRPRPIGQPRP,-0.0062

row,Sequence,shrunken log2 fold change
1,RRIRYRPPRLPRPRPRPCTKPRP,-1.15
2,RRIRFRPPRLPRPRPRPTIFPRP,-0.274
3,RRIRHRPPRLPRPRPRPMWCPRP,-0.187
4,RRIRVRPPRLPRPRPRPVAYPRP,-0.282
5,RRIRNRPPRLPRPRPRPDRWPRP,0.00119
6,RRIRGRPPRLPRPRPRPCNTPRP,0.00375
7,RRIRCRPPRLPRPRPRPFYMPRP,-1.15
8,RRIRMRPPRLPRPRPRPNDPPRP,-0.516
9,RRIRERPPRLPRPRPRPWRYPRP,-0.176
10,RRIRLRPPRLPRPRPRPFMDPRP,-0.361
11,RRIRKRPPRLPRPRPRPKYIPRP,-0.0449
12,RRIRLRPPRLPRPRPRPRALPRP,2.21
13,RRIRGRPPRLPRPRPRPTRNPRP,1.61
14,RRIRDRPPRLPRPRPRPWCQPRP,-0.0971
15,RRIRLRPPRLPRPRPRPRAGPRP,0.557
16,RRIRHRPPRLPRPRPRPWMDPRP,0.113
17,RRIRTRPPRLPRPRPRPVHTPRP,0.243
18,RRIRGRPPRLPRPRPRPKAAPRP,1.26
19,RRIRPRPPRLPRPRPRPRNQPRP,0.00569
20,RRIRARPPRLPRPRPRPPNTPRP,0.289
21,RRIRERPPRLPRPRPRPSEFPRP,-0.23
